Source: patent US10071358B2, “Antibiotic preparation method and platform system based on same” (priority 2011, dated 2018)

Columns and labels:
Type in all cases: cell-based
[1] = test system: vancomycin-resistant enterococci (ATCC 700802); assay: inhibition / killing of vancomycin-resistant enterococci; details: FIG. 7 A
[2] = test system: multi-drug resistant Pseudomonas aeruginosa (clinical isolated strain 13578 in West China Hospital); assay: inhibition / killing of multi-drug resistant Pseudomonas aeruginosa; details: FIG. 7 C
[3] = test system: methicillin-resistant Staphylococcus aureus (ATCC BAA-42)

B1: wild-type colicin Ia: wild-type colicin Ia, bacteriocin secreted by Escherichia coli that forms ion channels (protein, UniProt P06716 1-626, looked up)
Colicin-Ia: MSDPVRITNPGAESLGYDSDGHEIMAVDIYVNPPRVDVFHGTPPAWSSFGNKTIWGGNEWVDDSPTRSDIEKRDKEITAYKNTLSAQQKENENKRTEAGKRLSAAIAAREKDENTLKTLRAGNADAADITRQEFRLLQAELREYGFRTEIAGYDALRLHTESRMLFADADSLRISPREARSLIEQAEKRQKDAQNADKKAADMLAEYERRKGILDTRLSELEKNGGAALAVLDAQQARLLGQQTRNDRAISEARNKLSSVTESLNTARNALTRAEQQLTQQKNTPDGKTIVSPEKFPGRSSTNHSIVVSGDPRFAGTIKITTSAVIDNRANLNYLLSHSGLDYKRNILNDRNPVVTEDVEGDKKIYNAEVAEWDKLRQRLLDARNKITSAESAVNSARNNLSARTNEQKHANDALNALLKEKENIRNQLSGINQKIAEEKRKQDELKATKDAINFTTEFLKSVSEKYGAKAEQLAREMAGQAKGKKIRNVEEALKTYEKYRADINKKINAKDRAAIAAALESVKLSDISSNLNRFSRGLGYAGKFTSLADWITEFGKAVRTENWRPLFVKTETIIAGNAATALVALVFSILTGSALGIIGYGLLMAVTGALIDESLVEKANKFWGI
- minimum inhibitory concentration (MIC) [1]: 0.91 nmol
- minimum inhibitory concentration (MIC) [2]: 0.91 nmol
- minimum inhibitory concentration (MIC) [3]: 0.23 nmol
